In article PMC5904255, “High-Mobility Group Box 1-Induced Complement Activation Causes Sterile Inflammation” (Frontiers in Immunology, 2018) one finds Kd data, which are given here for 3 molecules.

The term Kd denotes a measure of binding affinity in units of concentration. Higher therefore signals weaker binding.

Assay [1] addresses T1, purified normal human C1q (human, UniProt P02745 23-245; P02746 28-253; P02747 29-245).
T1 construct: Complement C1q subcomponent subunit A, human; Complement C1q subcomponent subunit B, human; Complement C1q subcomponent subunit C, human; Used purified (ELISA, SPR) and in 10% normal human serum (microspheres); also called serum C1q; C1q protein; source: bought: Sigma (purified normal human C1q); endogenous, normal human serum; copies: + +
The experiment in a line: SPR; C1q immobilised on CM5 dextran sensor chip; HMGB1 proteins passed over at 1.8, 0.9, 0.45, 0.23 and 0.11 µM; BIAcore 2000. The note with it: both partners purified.

The target of assay [2] is T1, purified normal human C1q. As to the kind of experiment: SPR; reciprocal: HMGB1 WT (R&D), A box or B box (10 µg/ml) immobilised on CM5 chip in 10 mM sodium acetate pH 4.0; C1q in HBS-EP (10 mM HEPES, 150 mM NaCl, 3.4 mM EDTA, 0.05% Tween 20, pH 7.4) at 200, 100, 50, 25 and 12.5 nM, 20 µl/min for 3 min; BIAcore 2000. The settings on record: both partners purified. In general terms: Surface plasmon resonance follows binding to a sensor surface in real time, without labels.

T1 sequence (P02745 23-245, chain 1 of 3): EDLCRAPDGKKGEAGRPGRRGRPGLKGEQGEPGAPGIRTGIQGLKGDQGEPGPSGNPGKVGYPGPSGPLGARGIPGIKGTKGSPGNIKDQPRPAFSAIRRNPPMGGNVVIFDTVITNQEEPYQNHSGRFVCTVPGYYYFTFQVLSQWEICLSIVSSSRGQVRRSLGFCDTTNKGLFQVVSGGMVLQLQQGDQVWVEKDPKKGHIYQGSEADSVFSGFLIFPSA
T1 sequence (P02746 28-253, chain 2 of 3): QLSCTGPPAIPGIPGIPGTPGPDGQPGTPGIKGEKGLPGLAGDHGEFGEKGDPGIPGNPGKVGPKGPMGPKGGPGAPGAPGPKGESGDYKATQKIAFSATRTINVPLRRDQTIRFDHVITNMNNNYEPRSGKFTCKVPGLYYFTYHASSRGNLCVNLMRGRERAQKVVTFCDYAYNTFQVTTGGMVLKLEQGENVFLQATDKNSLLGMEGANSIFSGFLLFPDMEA
T1 sequence (P02747 29-245, chain 3 of 3): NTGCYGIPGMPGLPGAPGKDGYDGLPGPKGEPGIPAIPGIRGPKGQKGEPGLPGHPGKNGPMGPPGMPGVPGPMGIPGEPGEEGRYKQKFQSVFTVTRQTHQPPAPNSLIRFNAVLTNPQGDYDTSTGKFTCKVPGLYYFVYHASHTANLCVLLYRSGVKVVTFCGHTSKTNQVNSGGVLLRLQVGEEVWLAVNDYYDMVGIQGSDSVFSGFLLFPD

B1: HMGB1 box A (aa 1-79) (domain or fragment, human, UniProt P09429 1-79, looked up)
chain: MGKGDPKKPRGKMSSYAFFVQTCREEHKKKHPDASVNFSEFSKKCSERWKTMSAKEKGKFEDMAKADKARYEREMKTYI
notes: HMGB1, human, A box, aa 1-79; Subcloned into pRSET B; also called HMGB1 A box; A box; source: E. coli BL21 (DE3) pLysE, purified
Turning to B1, the equilibrium dissociation constant (Kd) in assay [1] was about 4 µM.

B2: HMGB1 box B (aa 88-162) (domain or fragment, human, UniProt P09429 88-162, looked up)
chain: KFKDPNAPKRPPSAFFLFCSEYRPKIKGEHPGLSIGDVAKKLGEMWNNTAADDKQPYEKKAAKLKEKYEKDIAAY
notes: HMGB1, human, B box, aa 88-162; Subcloned into pRSET B; also called HMGB1 B box; B box; source: E. coli BL21 (DE3) pLysE, purified
Molecule B2 had a Kd in assay [1] of about 4 µM.

B3: HMGB1 produced in NS0 mouse myeloma cell line (Euk-HMGB1, R&D Systems) (natural protein, human, UniProt P09429 1-215, looked up)
chain: MGKGDPKKPRGKMSSYAFFVQTCREEHKKKHPDASVNFSEFSKKCSERWKTMSAKEKGKFEDMAKADKARYEREMKTYIPPKGETKKKFKDPNAPKRPPSAFFLFCSEYRPKIKGEHPGLSIGDVAKKLGEMWNNTAADDKQPYEKKAAKLKEKYEKDIAAYRAKGKPDAAKKGVVKAEKSKKKKEEEEDEEDEEDEEEEEDEEDEDEEEDDDDE
notes: High-mobility group box 1 (HMGB1), human, produced in mouse myeloma cell line NS0; No catalogue number is printed; also called HMGB1 WT (R&D); source: bought: R&D Systems (produced in NS0 mouse myeloma cell line)
On to B3, for which, in assay [2], the Kd is about 400 nM.
